Publication PMC4860565, “N6-Methyladenosine: a conformational marker that regulates the substrate specificity of human demethylases FTO and ALKBH5”

Assays:
[1] = target: T1, ALKBH5 (Homo sapiens, UniProt Q6P6C2 66-292); assay: EMSA; 1 mM MgCl2; no binding at 1250-fold excess protein (5 uM); MST: 50 mM Tris pH 7.5, 150 mM NaCl, 0.05% Tween 20, 25 C; EMSA: 10 mM HEPES pH 7.3, 5% glycerol, 20 mM KCl, 1 mM MgCl2, 1 mM DTT, RNasin, 4 nM RNA, 4 C; settings: protein: recombinant; tags: His6 (pNIC28-Bsa4); label: 3' biotin; blunt self-complementary duplex, 2 copies of one strand
[2] = target: T2, FTO (Homo sapiens, UniProt Q9C0B1 1-505); assay: as above; settings: protein: recombinant; tags: His6 (pNIC28-Bsa4); label: 3' biotin; blunt self-complementary duplex, 2 copies of one strand
[3] = target: T2, FTO; assay: MST (label-free); 1 mM NiSO4, 500 uM NOG; MST: 50 mM Tris pH 7.5, 150 mM NaCl, 0.05% Tween 20, 25 C; EMSA: 10 mM HEPES pH 7.3, 5% glycerol, 20 mM KCl, 1 mM MgCl2, 1 mM DTT, RNasin, 4 nM RNA, 4 C; settings: protein: recombinant, tags: His6 (pNIC28-Bsa4)
[4] = target: T1, ALKBH5; assay: MST (label-free); 1 mM MnCl2, NOG presumably as for FTO; MST: 50 mM Tris pH 7.5, 150 mM NaCl, 0.05% Tween 20, 25 C; EMSA: 10 mM HEPES pH 7.3, 5% glycerol, 20 mM KCl, 1 mM MgCl2, 1 mM DTT, RNasin, 4 nM RNA, 4 C; settings: protein: recombinant, tags: His6 (pNIC28-Bsa4)
[5] = target: T3, YTHDF2 (Homo sapiens, UniProt Q9Y5A9 385-576); assay: EMSA; 1 mM MgCl2; up to 5 uM protein; MST: 50 mM Tris pH 7.5, 150 mM NaCl, 0.05% Tween 20, 25 C; EMSA: 10 mM HEPES pH 7.3, 5% glycerol, 20 mM KCl, 1 mM MgCl2, 1 mM DTT, RNasin, 4 nM RNA, 4 C; settings: protein: recombinant; tags: GST (pGEX-6P-1); label: 3' biotin; random coil single strand
T3 sequence: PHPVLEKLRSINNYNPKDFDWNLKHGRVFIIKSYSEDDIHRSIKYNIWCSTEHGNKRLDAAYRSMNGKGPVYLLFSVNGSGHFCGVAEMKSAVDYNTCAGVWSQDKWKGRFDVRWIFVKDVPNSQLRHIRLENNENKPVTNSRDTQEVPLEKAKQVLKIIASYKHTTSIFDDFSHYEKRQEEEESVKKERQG

T1 sequence (Q6P6C2 66-292): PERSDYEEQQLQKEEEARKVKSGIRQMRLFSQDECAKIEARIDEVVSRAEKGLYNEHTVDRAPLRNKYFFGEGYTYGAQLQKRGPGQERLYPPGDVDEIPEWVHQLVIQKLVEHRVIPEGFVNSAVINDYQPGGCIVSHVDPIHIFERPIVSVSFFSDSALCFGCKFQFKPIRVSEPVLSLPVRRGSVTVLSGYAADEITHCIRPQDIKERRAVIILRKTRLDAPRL
T2 sequence (Q9C0B1 whole entry): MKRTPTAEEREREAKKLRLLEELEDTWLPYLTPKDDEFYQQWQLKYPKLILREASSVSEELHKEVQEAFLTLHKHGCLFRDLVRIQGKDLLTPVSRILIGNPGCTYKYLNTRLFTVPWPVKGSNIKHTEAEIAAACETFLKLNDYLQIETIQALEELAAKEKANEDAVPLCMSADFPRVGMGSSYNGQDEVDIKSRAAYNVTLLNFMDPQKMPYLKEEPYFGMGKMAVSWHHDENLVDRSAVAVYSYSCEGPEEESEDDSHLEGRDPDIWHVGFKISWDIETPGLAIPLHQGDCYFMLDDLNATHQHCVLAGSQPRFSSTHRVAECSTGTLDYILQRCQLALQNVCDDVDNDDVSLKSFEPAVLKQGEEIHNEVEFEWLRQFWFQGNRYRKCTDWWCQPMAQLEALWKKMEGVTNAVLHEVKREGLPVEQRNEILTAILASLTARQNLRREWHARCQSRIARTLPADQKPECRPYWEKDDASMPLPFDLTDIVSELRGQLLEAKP

B1: biotin-15 (dsRNA)
RNA 1: GCGGACUAGUCCGC
RNA 2: GCGGACUAGUCCGC
modifications: m6A at position 5 of each strand
- binding result [1]: no binding
- binding result [2]: no binding

B2: 25 (structured_RNA)
RNA: GCGGACUCCACCGC
modifications: m6A at position 5
- Kd ([3]; hairpin): 91.3 ± 4.65 µM
- Kd ([4]; hairpin): 75.3 ± 2.01 µM

B3: biotin-11 (ssRNA)
RNA: GCGGACUCCAGAUG
modifications: m6A at position 5
- binding result [5]: binds

B4: 11 (ssRNA)
RNA: GCGGACUCCAGAUG
modifications: m6A at position 5
- Kd ([3]; random coil single strand): 97.1 ± 6.66 µM
- Kd ([4]; random coil single strand): 52.9 ± 2.21 µM
